How the values were obtained:
Assay in all cases: SPOT alanine scanning, spot intensity
[1] = target: HER3 peptide 343-357 … with Asp352 replaced by alanine (human)
[2] = target: HER3 peptide 344-358 … with Asp352 replaced by alanine (human)
[3] = target: alanine analogs at Pro353 and Ile357 of the HER3 pentadecapeptides 342-356, 343-357 and 344-358
[4] = target: HER3 peptide 342-356 … with Asp352 replaced by alanine (human)

B1: mAb H4B-121 (purified human IgG) (antibody, V domains shown)
VH: EVQLVESGGGLVQPGRSLRLSCAASGFTFDDYAMHWVRQAPGKGLEWVSGISWNSGSIGYADSVKGRFTISRDNAKNSLYLQMNSLRAEDTAVYYCAREGQWPNYGMDVWGQGTTVTVSS
VL: QSVLTQPPSVSAAPGQKVTISCPGSSSNIGNNYVSWYQQLPGTAPKLLIYDNNERPSGIPDRFSGSTSGTSATLDITDLQAEDEATYYCGAWDNTLGVYVLGTGTQLTVL
decrease in binding capacity against the unmodified peptide [1]: 92%
decrease in binding capacity against the unmodified peptide [2]: 92%
decrease in antibody reactivity against the unmodified peptide [3]: 40 to 60%
decrease in binding capacity against the unmodified peptide [4]: 92%
